# According to US20090053725 (United States as represented by Secretary of the Air Force, published 2009):
# Tests used:
# Ovalbumin = Ovalbumin (UniProt P01012 P01012:2-386); experiment: control protein, no fluorescence increase; same conditions; Example 1 likewise no increase; conditions: tags: Sigma-Aldrich; immobilized on maleic anhydride plate; label: Birch Yellow T1 Evitag quantum dot on plus strand; BHQ2 quencher on negative strand; partial duplex, 3' 19 nt of the aptamer paired, 5' single-stranded overhang
# Ovalbumin, sequence (P01012 2-386, one chain of several): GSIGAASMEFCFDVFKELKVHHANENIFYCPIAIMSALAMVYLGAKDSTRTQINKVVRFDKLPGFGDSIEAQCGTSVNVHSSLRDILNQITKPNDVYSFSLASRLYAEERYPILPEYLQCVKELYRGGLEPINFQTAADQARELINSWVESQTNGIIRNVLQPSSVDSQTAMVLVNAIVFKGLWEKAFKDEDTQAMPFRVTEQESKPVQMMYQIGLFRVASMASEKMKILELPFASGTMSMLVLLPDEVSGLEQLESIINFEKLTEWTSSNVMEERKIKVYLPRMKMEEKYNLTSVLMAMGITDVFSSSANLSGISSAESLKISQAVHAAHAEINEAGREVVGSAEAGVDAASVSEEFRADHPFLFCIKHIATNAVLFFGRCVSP
# Shiga toxin = Shiga toxin (UniProt Q9FBI2;Q7BQ98 Q9FBI2:23-315,Q7BQ98:21-89)
# Shiga toxin, sequence (Q9FBI2 23-315, chain 1 of 2): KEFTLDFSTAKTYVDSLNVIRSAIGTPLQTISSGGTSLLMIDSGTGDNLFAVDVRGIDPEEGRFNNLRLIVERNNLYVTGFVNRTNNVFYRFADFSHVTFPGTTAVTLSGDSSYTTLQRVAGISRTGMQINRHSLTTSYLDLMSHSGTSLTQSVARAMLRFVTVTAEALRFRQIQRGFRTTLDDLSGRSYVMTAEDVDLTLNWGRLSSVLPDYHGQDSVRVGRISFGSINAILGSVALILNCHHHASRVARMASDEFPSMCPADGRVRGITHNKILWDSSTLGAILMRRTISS
# Shiga toxin, sequence (Q7BQ98 21-89, chain 2 of 2): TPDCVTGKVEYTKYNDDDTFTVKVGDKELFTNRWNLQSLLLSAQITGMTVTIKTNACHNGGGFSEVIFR
binder,measurement,setting,value
"STJ-9 annealed quenched complex (Plus STJ-9 / Negative STJ-9) (dsDNA, 3' amine on plus strand; 5' BHQ2 on negative strand) DNA 1: GGTAACTAGCATTCATTTCCCACACCCGTCCCGTCCATAT DNA 2: ATATGGACGGGACGGGTGT",binding result,Ovalbumin,no binding
GGTAACTAGCATTCATTTCCCACACCCGTCCCGTCCATAT (ssDNA) [Plus STJ-9],binding result,Shiga toxin,binds
